# Experimental data published in PMC5457145 (Science Advances, 2017).
# Ends that are not written are not given here.
# T1: His6Sumo-TPR2 TPD N176H/R67A (rice, UniProt Q5NBT9 1-209, N176H | R67A)
# T1 sequence (looked up): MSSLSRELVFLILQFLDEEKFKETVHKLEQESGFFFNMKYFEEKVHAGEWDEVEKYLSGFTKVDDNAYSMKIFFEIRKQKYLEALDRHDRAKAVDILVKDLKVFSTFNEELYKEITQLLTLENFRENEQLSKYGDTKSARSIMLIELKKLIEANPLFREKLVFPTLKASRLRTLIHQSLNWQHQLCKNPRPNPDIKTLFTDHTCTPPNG
# T2: His6Sumo-TPR2 TPD N176H/K71A (rice, UniProt Q5NBT9 1-209, N176H | K71A)
# T2 sequence (looked up): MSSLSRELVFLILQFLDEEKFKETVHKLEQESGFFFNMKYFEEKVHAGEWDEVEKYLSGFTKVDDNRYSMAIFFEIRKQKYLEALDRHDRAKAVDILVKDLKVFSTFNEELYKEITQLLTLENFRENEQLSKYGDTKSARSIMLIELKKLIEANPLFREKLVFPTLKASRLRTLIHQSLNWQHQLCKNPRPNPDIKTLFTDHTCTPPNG
# T3: His6Sumo-TPR2 TPD W181A (rice, UniProt Q5NBT9 1-209, W181A)
# T3 sequence (looked up): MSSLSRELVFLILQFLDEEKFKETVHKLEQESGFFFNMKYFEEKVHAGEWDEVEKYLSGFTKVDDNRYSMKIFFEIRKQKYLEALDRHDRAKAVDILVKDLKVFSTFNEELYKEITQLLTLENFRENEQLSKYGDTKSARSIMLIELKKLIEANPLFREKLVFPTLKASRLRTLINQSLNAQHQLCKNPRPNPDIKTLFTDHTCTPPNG
# T4: His6Sumo-TPR2 TPD L198A (rice, UniProt Q5NBT9 1-209, L198A)
# T4 sequence (looked up): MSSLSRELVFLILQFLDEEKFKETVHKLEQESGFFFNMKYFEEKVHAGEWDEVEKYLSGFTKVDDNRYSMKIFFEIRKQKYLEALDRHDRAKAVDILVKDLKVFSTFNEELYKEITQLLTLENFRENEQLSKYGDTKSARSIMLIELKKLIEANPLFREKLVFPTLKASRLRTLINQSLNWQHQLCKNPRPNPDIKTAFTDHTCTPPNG
# T5: His6Sumo-TPR2 TPD N176H/Y68R (rice, UniProt Q5NBT9 1-209, N176H | Y68R)
# T5 sequence (looked up): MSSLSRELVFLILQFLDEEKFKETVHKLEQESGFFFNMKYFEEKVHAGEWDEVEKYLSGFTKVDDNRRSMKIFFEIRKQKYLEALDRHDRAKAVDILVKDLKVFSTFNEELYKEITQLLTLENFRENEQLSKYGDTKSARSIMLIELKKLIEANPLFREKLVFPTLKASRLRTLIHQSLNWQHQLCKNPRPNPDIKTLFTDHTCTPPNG
# T6: His6Sumo-TPR2 TPD N176H/Y68A (rice, UniProt Q5NBT9 1-209, N176H | Y68A)
# T6 sequence (looked up): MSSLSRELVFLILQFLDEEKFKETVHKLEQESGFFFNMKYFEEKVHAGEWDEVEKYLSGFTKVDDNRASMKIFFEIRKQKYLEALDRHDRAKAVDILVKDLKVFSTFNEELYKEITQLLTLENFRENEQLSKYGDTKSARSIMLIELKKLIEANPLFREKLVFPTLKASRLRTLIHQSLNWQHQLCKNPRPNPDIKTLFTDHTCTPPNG
# T7: His6Sumo-TPR2 TPD L111A/L130A (rice, UniProt Q5NBT9 1-209, L111A | L130A)
# T7 sequence (looked up): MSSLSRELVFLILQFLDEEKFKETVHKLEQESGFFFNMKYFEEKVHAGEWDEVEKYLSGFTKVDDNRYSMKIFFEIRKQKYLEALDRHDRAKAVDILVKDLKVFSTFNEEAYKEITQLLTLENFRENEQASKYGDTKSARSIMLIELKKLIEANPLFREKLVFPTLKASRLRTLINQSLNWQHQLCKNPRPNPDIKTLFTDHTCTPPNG
# T8: His6Sumo-tagged TPR2 TPD (rice, UniProt Q5NBT9 1-209)
# T8 sequence (looked up): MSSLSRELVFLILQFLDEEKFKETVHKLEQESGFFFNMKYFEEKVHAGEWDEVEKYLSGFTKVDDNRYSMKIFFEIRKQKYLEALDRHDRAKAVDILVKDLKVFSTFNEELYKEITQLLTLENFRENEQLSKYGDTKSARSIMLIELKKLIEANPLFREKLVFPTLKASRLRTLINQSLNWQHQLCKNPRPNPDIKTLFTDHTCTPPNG
# T9: His6Sumo-TPR2 TPD N180A (rice, UniProt Q5NBT9 1-209, N180A)
# T9 sequence (looked up): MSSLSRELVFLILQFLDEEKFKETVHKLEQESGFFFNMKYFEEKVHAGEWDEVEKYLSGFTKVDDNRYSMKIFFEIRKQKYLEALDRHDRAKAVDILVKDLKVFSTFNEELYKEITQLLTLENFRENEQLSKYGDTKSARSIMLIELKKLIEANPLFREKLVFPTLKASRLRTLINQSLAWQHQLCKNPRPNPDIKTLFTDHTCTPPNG
# T10: His6Sumo-TPR2 TPD L179A/I195A (rice, UniProt Q5NBT9 1-209, L179A | I195A)
# T10 sequence (looked up): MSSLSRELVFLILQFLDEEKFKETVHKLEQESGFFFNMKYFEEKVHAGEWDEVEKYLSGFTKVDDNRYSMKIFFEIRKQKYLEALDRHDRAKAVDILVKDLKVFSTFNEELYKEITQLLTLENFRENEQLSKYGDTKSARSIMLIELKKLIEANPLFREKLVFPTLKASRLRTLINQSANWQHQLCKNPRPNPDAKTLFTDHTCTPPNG
# Assays:
# [1] = molecular target: T1, His6Sumo-TPR2 TPD N176H/R67A; experiment: AlphaScreen or HTRF
# [2] = molecular target: T2, His6Sumo-TPR2 TPD N176H/K71A; experiment: AlphaScreen or HTRF
# His6Sumo-TPR2 TPD W181A = molecular target: T3, His6Sumo-TPR2 TPD W181A; experiment: AlphaScreen or HTRF
# His6Sumo-TPR2 TPD L198A = molecular target: T4, His6Sumo-TPR2 TPD L198A; experiment: AlphaScreen or HTRF
# [3] = molecular target: T5, His6Sumo-TPR2 TPD N176H/Y68R; experiment: AlphaScreen or HTRF
# [4] = molecular target: T6, His6Sumo-TPR2 TPD N176H/Y68A; experiment: AlphaScreen or HTRF
# [5] = molecular target: T7, His6Sumo-TPR2 TPD L111A/L130A; experiment: AlphaScreen or HTRF
# His6Sumo-tagged TPR2 TPD [6] = molecular target: T8, His6Sumo-tagged TPR2 TPD; experiment: AlphaScreen or HTRF
# His6Sumo-TPR2 TPD N180A = molecular target: T9, His6Sumo-TPR2 TPD N180A; experiment: AlphaScreen or HTRF
# [7] = molecular target: T10, His6Sumo-TPR2 TPD L179A/I195A; experiment: AlphaScreen or HTRF
# His6Sumo-tagged TPR2 TPD [8] = molecular target: T8, His6Sumo-tagged TPR2 TPD; experiment: AlphaScreen or HTRF; remark: listed apart in the source
# crystal structure = molecular target: the molecule itself; experiment: crystal structure
binder,measurement,setting,value
"DNLIYLDLNLQDWDD (peptide, UniProt Q2RBP2 794-808, looked up, also: biotinylated, site not given here) [Biotinylated D53 EAR-2 peptide, D53(794–808)]",binding result,[1],binds
same,binding result,[2],binds
same,binding result,His6Sumo-TPR2 TPD W181A,binds
same,binding result,His6Sumo-TPR2 TPD L198A,binds
same,binding result,[3],binds
same,binding result,[4],binds
same,binding result,[5],binds
same,binding result,His6Sumo-tagged TPR2 TPD [6],binds
same,binding result,His6Sumo-TPR2 TPD N180A,binds
same,binding result,[7],binds
"DNLIYADLNLQ (peptide, UniProt Q2RBP2 794-804, looked up) [D53 EAR-2 peptide L799A]",IC50,His6Sumo-tagged TPR2 TPD [8],14.3 µM
"DNLIYLDLNLA (peptide, UniProt Q2RBP2 794-804, looked up) [D53 EAR-2 peptide Q804A]",fold increase of the strength of the interaction against wild-type EAR-2,His6Sumo-tagged TPR2 TPD [8],> 3 fold
"TPR2 TPD, TPR2(1–209), untagged (domain or fragment, rice, UniProt Q5NBT9 1-209, looked up) MSSLSRELVFLILQFLDEEKFKETVHKLEQESGFFFNMKYFEEKVHAGEWDEVEKYLSGFTKVDDNRYSMKIFFEIRKQKYLEALDRHDRAKAVDILVKDLKVFSTFNEELYKEITQLLTLENFRENEQLSKYGDTKSARSIMLIELKKLIEANPLFREKLVFPTLKASRLRTLINQSLNWQHQLCKNPRPNPDIKTLFTDHTCTPPNG",stoichiometry N,crystal structure,4
"TPR2 TPD L111A/L130A, untagged (domain or fragment, rice, UniProt Q5NBT9 1-209, looked up) MSSLSRELVFLILQFLDEEKFKETVHKLEQESGFFFNMKYFEEKVHAGEWDEVEKYLSGFTKVDDNRYSMKIFFEIRKQKYLEALDRHDRAKAVDILVKDLKVFSTFNEEAYKEITQLLTLENFRENEQASKYGDTKSARSIMLIELKKLIEANPLFREKLVFPTLKASRLRTLINQSLNWQHQLCKNPRPNPDIKTLFTDHTCTPPNG",binding result,crystal structure,binds
